This note sets out measurements from patent publication US20220409711A1 (published 2022).

The target of this test is T1, Hormad1 peptide on HLA-A*02:01 (human).
T1 peptide: YLDDLCVKI
As to the kind of experiment: multimer staining.

B1: Hormad1 CTL A12 TCR (TRAV4*01 F, TRBV13*01 F) (TCR, V domains shown)
Valpha: LAKTTQPISMDSYEGQEVNITCSHNNIATNDYITWYQQFPSQGPRFIIQGYKTKVTNEVASLFIPADRKSSTLSLPRVSLSDTAVYYCLVGARGTALIFGKGTTLSVSS
Vbeta: AAGVIQSPRHLIKEKRETATLKCYPIPRHDTVYWYQQGPGQDPQFLISFYEKMQSDKGSIPDRFSAQQFSDYHSELNMSSLELGDSALYFCASSPTGQGSYEQYFGPGTRLTVT
As for B1, the binding result is “recognises”.
